In publication PMC2776994 (2009):

B1: PcrA (protein)
chain: MNFLSEQLLAHLNKEQQEAVRTTEGPLLIMAGAGSGKTRVLTHRIAYLMAEKHVAPWNILAITFTNKAAREMRERVQSLLGGAAEDVWISTFHSMCVRILRRDIDRIGINRNFSILDPTDQLSVMKTILKEKNIDPKKFEPRTILGTISAAKNELLPPEQFAKRASTYYEKVVSDVYQEYQQRLLRNHSLDFDDLIMTTIQLFDRVPDVLHYYQYKFQYIHIDEYQDTNRAQYTLVKKLAERFQNICAVGDADQSIYRWRGADIQNILSFERDYPNAKVILLEQNYRSTKRILQAANEVIEHNVNRKPKRIWTENPEGKPILYYEAMNEADEAQFVAGRIREAVERGERRYRDFAVLYRTNAQSRVMEEMLLKANIPYQIVGGLKFYDRKEIKDILAYLRVIANPDDDLSLLRIINVPKRGIGASTIDKLVRYAADHELSLFEALGELEMIGLGAKAAGALAAFRSQLEQWTQLQEYVSVTELVEEVLDKSGYREMLKAERTIEAQSRLENLDEFLSVTKHFENVSDDKSLIAFLTDLALISDLDELDGTEQAAEGDAVMLMTLHAAKGLEFPVVFLIGMEEGIFPHNRSLEDDDEMEEERRLAYVGITRAEEELVLTSAQMRTLFGNIQMDPPSRFLNEIPAHLLETASRRQAGASRPAVSRPQASGAVGSWKVGDRANHRKWGIGTVVSVRGGGDDQELDIAFPSPIGIKRLLAKFAPIEKV
modifications: DNA junction

Legend:
[1] = biological target: T1, PcrA helicase (UniProt P56255 1-724); assay: not stated in material
T1 sequence: B1 chain

[2] = biological target: T2, RepD (Staphylococcus aureus, UniProt P03065); assay: fluorescence anisotropy
T2 chain: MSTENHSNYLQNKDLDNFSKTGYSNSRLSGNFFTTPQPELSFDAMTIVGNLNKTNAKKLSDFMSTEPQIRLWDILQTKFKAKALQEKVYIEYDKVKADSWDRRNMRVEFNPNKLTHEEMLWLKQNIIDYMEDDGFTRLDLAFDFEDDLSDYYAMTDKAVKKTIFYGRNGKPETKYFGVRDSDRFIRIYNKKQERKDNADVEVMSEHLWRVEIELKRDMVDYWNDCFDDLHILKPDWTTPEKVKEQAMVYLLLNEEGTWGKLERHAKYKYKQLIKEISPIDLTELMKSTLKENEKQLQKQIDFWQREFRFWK

| Binder | Kd [1] [nM] | Kd [2] [nM] |
| --- | --- | --- |
| TTTTTTTTTT (ssDNA) [dT10] | 240 | – |
| B1 | – | 22 |
